The source of these data is US20230212304A1 (BIOSION, published 2023).

Test [1] addresses T1, cynomolgus monkey CTLA4-his protein (Acro biosystems, Cat#CT4-C5227) (cynomolgus monkey, UniProt G7PL88 36-161).
T1 construct: bought recombinant protein; also called Cynomolgus CTLA4-his; not shown: his tag
T1 sequence: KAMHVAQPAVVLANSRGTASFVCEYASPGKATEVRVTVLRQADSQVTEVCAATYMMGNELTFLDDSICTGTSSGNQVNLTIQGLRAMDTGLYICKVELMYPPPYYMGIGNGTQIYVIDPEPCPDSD
The test can be described thus: SPR, Biacore T200; antibody captured, CTLA4-his as analyte. As to the method:
(§1) Un-reacted moieties on the biosensor surface were blocked with ethanolamine. […] The antigen-antibody association kinetics was followed for 2 minutes and the dissociation kinetics was followed for 10 minutes. The association and dissociation curves were fit to a 1:1 Langmuir binding model using BIAcore evaluation software.
(Surface plasmon resonance follows binding to a sensor surface in real time, without labels.)

The target of test [2] is T2, recombinant human CTLA4-his protein (Acro biosystems, Cat#CT4-H5229) (human, UniProt P16410 37-162).
T2 construct: bought recombinant protein; not shown: his tag
T2 sequence (looked up): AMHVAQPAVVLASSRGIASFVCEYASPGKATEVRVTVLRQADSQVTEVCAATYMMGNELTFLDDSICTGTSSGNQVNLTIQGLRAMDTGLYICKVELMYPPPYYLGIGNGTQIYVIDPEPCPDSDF
Described as above. As to the method:
as §1

Test [3] has as its target T3, recombinant human CTLA4 protein with human IgG1 Fc tag at the C-terminus (Acro biosystems, Cat#CT4-H5255) (human, UniProt P16410 37-162).
T3 sequence (looked up): T2 sequence (looked up)
The test can be described thus: cell-based or functional assay.

The target in test [4] is T3, recombinant human CTLA4 protein with …. The test can be described thus: cell based blocking FACS: antibody pre-mixed with human CTLA4-Fc, added to Daudi cells; blocked ligands: cell surface CD80/CD86.
Test [5] shares this target. Kind of test: capture ELISA: antibody captured on anti-mouse IgG F(ab')2 coated plate, biotin human CTLA4-Fc 26 ng/ml, streptavidin-HRP, OD(450-630). How it is done: (§2) Plates were washed once with wash buffer (PBS+0.05% v/v Tween-20, PBST) and then blocked with 200 µl/well blocking buffer (PBST with 5% w/v non-fatty milk) for 2 hours at 37° C. […] After a final wash, plates were incubated with 100 µl/well substrate TMB (Innoreagents, Cat#TMB-S-002). The reaction was stopped in 15 minutes at room temperature with 50 µl/well 1M H₂SO₄, and the absorbance of the each well was read on a microplate reader using dual wavelength mode with 450 nm for TMB and 630 nm as the reference wavelength, then the OD (450-630) values were plotted against antibody concentration. Data was analyzed using Graphpad Prism software and EC₅₀ values were reported.

Test [6] shares this target. Kind of test: capture ELISA: antibody captured on coated plate (anti-human IgG Fc for the chimeric antibodies), biotin human CTLA4-Fc, streptavidin-HRP, OD(450-630). How it is done: as §2
For the capture ELISA, AffiniPure Goat Anti-Human IgG, Fcy fragment specific (Jackson Immuno Research, Cat#109-005-008) was used instead of AffiniPure Goat Anti-Mouse IgG, F(ab′)₂ fragment specific, 100 µl/well.
(In general: In an ELISA, binding on a coated surface is turned into a signal by an enzyme label.)

Test [7] shares this target. Kind of test: cell based blocking FACS: antibody pre-mixed with human CTLA4-Fc (1 ug/mL), added to Daudi cells; blocked ligands: cell surface CD80/CD86. As to the method: Daudi cells were harvested from cell culture flasks at the log phase, washed twice and re-suspended in PBS containing 2% v/v Fetal Bovine Serum (FACS buffer). […] Cells were washed twice and re-suspended in FACS buffer. Fluorescence was measured using a Becton Dickinson FACS Canto II-HTS equipment. Data was analyzed using Graphpad Prism software and IC₅₀ values were reported.

The target is the same in test [8]. Kind of test: competitive ELISA: antibody pre-mixed with biotin human CTLA4-Fc (65 ng/ml), added to plate coated with the benchmark; competitor: coated Yervoy. As to the method: Plates were washed once with wash buffer, blocked with 200 µl PBST with 5% w/v non-fatty milk, incubated for 2 hours at 37° C., and washed 4 times.
After incubation at 37° C. for 40 minutes, plates were washed 4 times again using wash buffer. Then the plates were added and incubated with 100 µl/well streptavidin conjugated HRP (1:10000 dilution in PBST, Jackson Immuno Research, Cat#016-030-084, 100 µl/well) for 40 minutes at 37° C. Plates were finally washed using wash buffer. Finally, TMB was added and the reaction was stopped using 1M H₂SO₄, and the absorbance of the each well was read on a microplate reader using dual wavelength mode with 450 nm for TMB and 630 nm as the reference wavelength, then the OD (450-630) values were plotted against antibody concentration. Data was analyzed using Graphpad Prism software and IC₅₀ values were reported.

The target in test [9] is T2, recombinant human CTLA4-his protein …. Kind of test: BLI, Octet RED96; antibody on AHC sensor, CTLA4-his as analyte. As to the method: Briefly, AHC biosensors (anti-human IgG Fc capture, from ForteBio) were presoaked with 10 mM glycine (pH 1.5) for 3 seconds, and then dipped in a well with running buffer (0.5% w/v BSA in PBST) for 3 seconds, the soaking and dipping steps were repeated for three times. […] A new baseline was run for 180 seconds in another well with running buffer. […] Finally, sensors were presoaked with 10 mM glycine (pH 1.5) for 3 seconds, and then were dipped in a well with running buffer for 3 seconds, the soaking and dipping steps repeated for three times. The association and dissociation curves were fit to a 1:1 Langmuir binding model using ForteBio Data Analysis 8.1.
For orientation: Biolayer interferometry detects binding as a change in optical thickness at a sensor tip.

B1: mouse anti-CTLA4 monoclonal antibody C1G4 (antibody, V domains shown)
VH: EVKLDETGGGLVQPGRPIKLSCVASGFTFSDNWMNWVRQSPEKGLEWVAQIRNKPYNYETYYSDSVKGRFTISRDDSKSSVYLQMNNLRTKDMGIYYCTGGFTYWGQGTLVTVSA
VL: DIQMTQSPPSLSASVGETVTITCGASENIYGGLNWYQRKQGKSPQLLIYGATNLADGMSSRFSGSGSGRQYSLKISRLHPDDVATYYCQNVLNTPYTFGGGTKLEIK
notes: mouse mAb purified from hybridoma supernatant
What is called Kd is the concentration at which binding is half-saturated. The koff is a measure of how fast the partners let go of each other. By kon is commonly meant the rate constant with which the complex forms. As a reminder, the IC50 is the midpoint of a concentration-inhibition curve. For orientation: EC50 means the concentration at which the effect is half-maximal. As for B1, the Kd was determined as 1.71 nM in [1] and 1.77 nM in [2]. In addition, the off-rate (koff) in test [1] came to 0.00077 s⁻¹; in test [2], 0.000513 s⁻¹. Also, the kon in [1] is 451000 M⁻¹ s⁻¹; in test [2] it was 290000 M⁻¹ s⁻¹. Also, the “EC50 of IL-2 release (GS-J1 T cells + GS-C1/CD80 cells + human CTLA4-Fc, IL-2 HTRF)” value (“EC50 of IL-2 release” below) in test [3] was determined as 35.3 nM. In addition, the IC50 came out at 10.6 nM in [4], 11 nM in [7] and 0.865 nM in [8]. Also, the EC50 was determined as 0.134 nM in [5] and 0.832 nM in [6].

B2: chimeric C1G4 anti-CTLA4 antibody (antibody, human IgG4 S228P, kappa, V domains shown)
VH: B1 VH
VL: DIQMTQSPPSLSASVGETVTITCGASENIYGGLNWYQRKQGKSPQLLIYGATNLADGMSSRFSGSGSGRQYSLKISRLHPDDVATYYCQNVLNTPYTFGGGTKLEIKR
notes: mouse variable domains on human IgG4/kappa, made in 293F cells
On to B2, for which, in [9], the Kd was 1 nM, the koff is 0.000679 s⁻¹ and the association rate constant (kon) worked out at 676000 M⁻¹ s⁻¹. In addition, the IC50 in test [4] was 10.2 nM. The EC50 in [6] was determined as 0.869 nM.

B3: mouse anti-CTLA4 monoclonal antibody D1B6 (antibody, V domains shown)
VH: EVQLQQSGPELVKPGASVKLSCKASGNTFTTYVLNWVKQKPGQGLEWIGYFNPYNDGIKYNEKFKGKATLTSDKSSNTAYMELSSLTSEDSAVYYCARFEGGGYAMDYWGQGTSVTVSS
VL: DIVLTQSPASLAVSLGQRATISCRASQSVGTSRNTYIHWYQQKLGQPPKLLIKYASDLESGVPARFSGSGSGTDFTLNIHPVEEEDTATYYCQHSWEIPYTFGGGTKLEIK
notes: as for B1
On to B3, for which the Kd in test [1] was 4.12 nM; in [2], 7.45 nM. Moreover, the off-rate (koff) in test [1] worked out at 0.000787 s⁻¹; in test [2] it was 0.000487 s⁻¹. The kon in [1] came out at 191000 M⁻¹ s⁻¹; in [2] it was 65400 M⁻¹ s⁻¹. Moreover, the “EC50 of IL-2 release” value in test [3] worked out at 36.6 nM. The IC50 in [4] is 8.09 nM; in test [7], around 4.6 nM; in test [8], 0.618 nM. The results for the EC50 in test [5] and in [6] were 0.116 nM and 0.418 nM, respectively.

B4: chimeric D1B6 anti-CTLA4 antibody (antibody, human IgG4 S228P, kappa, V domains shown)
VH: B3 VH
VL: DIVLTQSPASLAVSLGQRATISCRASQSVGTSRNTYIHWYQQKLGQPPKLLIKYASDLESGVPARFSGSGSGTDFTLNIHPVEEEDTATYYCQHSWEIPYTFGGGTKLEIKR
notes: as for B2
For the molecule B4, in test [9], the Kd stood at 148 nM, the dissociation rate constant (koff) was 0.00076 s⁻¹ and the kon amounted to 5140 M⁻¹ s⁻¹. In [4], the IC50 was around 6.6 nM. Moreover, in test [6], the EC50 stood at 0.514 nM.

B5: mouse anti-CTLA4 monoclonal antibody D1H4 (antibody, V domains shown)
VH: EVQLQQSGPVLVKPGASVKMSCKASGYTFTDYYMNWVKQSHGKSLEWIGAINPDHGGSSYNQKFKGKATLTVDKSSSTAYMELNSLTSEDSAVYYCARDGSIHYVMDDWGQGTSVTVSS
VL: DIVMSQSPSSLTVSAGDKVTMSCKSSQSLLHSGNQKNYLAWYQQKPWQPPKLLIYGASTRESGVPDRFTGSGSGTDFTLTISSVQAEDLAVYYCQNDYGYPYTFGGGTKLEIK
notes: as for B1
On to B5, for which, in [1], the Kd turned out to be 0.727 nM, the koff is 0.000422 s⁻¹ and the kon worked out at 580000 M⁻¹ s⁻¹. Besides, in test [2], the Kd stood at 0.925 nM, the koff turned out to be 0.000321 s⁻¹ and the kon was 346000 M⁻¹ s⁻¹. The “EC50 of IL-2 release” value in test [3] is around 40.8 nM. For the same molecule, the half-maximal effective concentration (EC50) in [5] came out at 0.108 nM. Moreover, in test [7], the IC50 was around 8.85 nM. Also, the “IC50 (read off the curve)” value in test [8] is around 2 nM.
